Results: patent US20260327304 (published 2026)

T1: cynomolgus monkey CD3 protein (cynomolgus monkey)
T1 chain: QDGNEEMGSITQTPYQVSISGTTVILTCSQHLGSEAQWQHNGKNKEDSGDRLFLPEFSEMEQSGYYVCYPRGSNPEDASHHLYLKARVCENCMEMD

T2: human CD3 protein (human)
T2 chain: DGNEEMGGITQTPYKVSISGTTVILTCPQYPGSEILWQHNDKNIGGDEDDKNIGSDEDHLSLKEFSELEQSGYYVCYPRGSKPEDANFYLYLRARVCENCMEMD

B1: huB1G5-ScFv-2VHH (CD3 arm) (antibody)
chain: EVQLVESGGGLVQPGGSLKLSCAASGFTFSTYAMNWVRQAPGKGLEWVGRIRSKYNNYATYYADSVKDRFTISRDDSKNTLYLQMNSLKTEDTAVYYCTRHGNFGNSYVSWFAYWGQGTTVTVSSGGGGSGGGGSGGGGSQAVVTQEPSLTVSPGGTVTLTCRSSTGAVTTSNYANWVQQKPGQAPRGLIGGTNKRAPGVPARFSGSLLGGKAALTLSGAQPEDEAEYFCALWYSNLWVFGGGTKLTVLG
modifications: ACRO CDD-C52W4
B2: huB1G5-CD3Fab (CD3 arm) (antibody, V domains shown)
VH: EVQLVESGGGLVQPGGSLKLSCAASGFTFSTYAMNWVRQAPGKGLEWVGRIRSKYNNYATYYADSVKDRFTISRDDSKNTLYLQMNSLKTEDTAVYYCTRHGNFGNSYVSWFAYWGQGTTVTVSS
VL: QAVVTQEPSLTVSPGGTVTLTCRSSTGAVTTSNYANWVQQKPGQAPRGLIGGTNKRAPGVPARFSGSLLGGKAALTLSGAQPEDEAEYFCALWYSNLWVFGGGTKLTVL
modifications: ACRO CDD-C52W4
B3: huB1G5-CD3-2VHH (CD3 arm) (antibody, V domains shown)
VH: B2 VH
VL: B2 VL
modifications: ACRO CDD-C52W4
B4: huB1G5-ScFv-2VHH (CD3 arm) (antibody)
chain: B1 chain
B5: huB1G5-CD3Fab (CD3 arm) (antibody, V domains shown)
VH: B2 VH
VL: B2 VL
B6: huB1G5-CD3-2VHH (CD3 arm) (antibody, V domains shown)
VH: B2 VH
VL: B2 VL

Biological target: T1, cynomolgus monkey CD3 protein
Assay: BLI

Kd [nM]	Binder
28.2	B1
6.59	B2
6.92	B3

Biological target: T2, human CD3 protein
Assay: BLI

Kd [nM]	Binder
35.7	B4
26.3	B5
22.6	B6
